Data as given in the Human Domainome abundance scans (Beltran et al. 2025).

B1: Receptor-interacting serine/threonine-protein kinase 2, residues 438 to 518; numbered along this chain, O43353 (parent)
chain: QWIQSKREDIVNQMTEACLNQSLDALLSRDLIMKEDYELVSTKPTRTSKVRQLLDTTDIQGEEFAKVIVQKLKDNKQMGLQ
B2: Advillin, residues 785 to 819; numbered along this chain, O75366 (parent)
chain: LSEQDFVSVFGITRGQFAALPGWKQLQMKKEKGLF

Variants of: B1
Experiment: abundance fitness (aPCA) (normalised: wild type 0, dead -1); higher = more abundant; growth selection in yeast, the domain comes from the species named
Details: Homo sapiens

Abundance fitness, by site and new letter:
D74: R -0.49; S -0.323; T -0.285; W -0.488; Y -0.173
N75: A -0.281; C -0.2; D -0.053; F -0.431; G -0.241; H -0.024; K -0.535; L -0.135; M -0.162; P -0.446; Q -0.046; R -0.62; T -0.245; V -0.383; W -0.244; Y -0.285
K76: A 0.008; C 0.003; D -0.192; E -0.19; F -0.207; G 0.066; H -0.069; L -0.125; N -0.203; P -0.314; Q -0.032; R -0.192; S 0.032; T -0.093; V -0.301; W -0.36; Y -0.272
Q77: H -0.137
M78: I -0.372
G79: R -0.282; S -0.021; V -0.167
Q81: H -0.419

Variants of: B2
Experiment: as above
Details: Homo sapiens

Abundance fitness, by site and new letter:
L1: A -0.322; C -0.279; E 0.694; G -0.051; K -0.266; N -0.078; R -0.156; S -0.135; W -0.079
S2: C -0.175; D 0.311; E -0.085; G -0.078; K -0.127; L -0.123; M -0.514; P -0.584; Q -0.416; R -0.282; T -0.289; V -0.322; W -0.305; Y -0.505
E3: A -0.258; C -0.421; D 0.103; F -0.039; G -0.366; H -0.323; I -0.175; K -0.409; L -0.304; M -0.461; N 0.165; P -0.268; Q -0.225; R -0.476; S -0.183; T -0.092; W -0.4; Y -0.543
Q4: A -0.064; C -0.846; D -0.592; E 0.018; F -0.063; G -0.001; H -0.277; I 0.237; K 0; L 0.016; N -0.317; P -0.076; R -0.11; S 0.019; T -0.202; V 0.002; W -0.267
D5: C -1.17; E -0.073; G -0.188; K -0.146; L -0.209; M -0.332; P -0.651; Q -0.204; R -0.188; S -0.031; T -0.255; V -0.521; W -1; Y -0.782
F6: A -1.28; C 0.06; D -0.831; E -0.906; G -1.08; H -0.87; I -0.162; K -0.514; N -0.928; P -0.461; Q -0.402; R -0.468; S -0.488; T -0.183; V -1.19; W -0.186; Y -0.224
V7: A -0.149; D -0.085; E 0.105; F -0.038; G -0.306; I -0.028; K -0.384; L 0.04; M -0.291; Q 0.004; R -0.139; S 0.071; T -0.115; W -0.343
S8: A 0.052; D -0.081; E 0.119; F -0.476; G -0.026; K 0.156; L -0.238; M 0.003; N -0.329; P -0.506; R 0.023; T -0.024; V -0.117; W -0.439; Y -0.84
V9: A -0.222; C -0.527; D -0.443; E -0.149; F -0.422; G -0.286; H 0.018; K -0.04; L -0.131; M -0.184; P -0.632; R -0.162; S -0.456; T -0.141; W -0.684; Y -0.156
F10: A -0.398; C -0.31; D -0.316; E -0.285; G -0.27; H -0.932; K -0.319; L -0.392; M -0.305; N -0.2; P -0.726; Q -0.59; S -0.383; T -0.367; V -0.332; W -0.274; Y -0.016
G11: A -0.485; D -0.647; E -0.65; F 0.179; K -0.453; L -1.05; M -0.986; P -0.797; R -0.513; S -0.353; T -0.547; V -0.537; W -0.846
I12: A -0.445; D -0.442; E -0.592; G -0.429; H -0.633; K -0.312; L -0.101; M 0.128; N -0.471; P -0.713; Q -0.897; R -0.629; S -0.629; T -0.531; V -0.089; W -0.999; Y -0.306
T13: A -0.397; C -0.255; D -0.265; E -0.101; F -0.368; G -0.382; I -0.475; K -0.314; L -0.619; M -0.369; N -0.26; P -0.219; Q -0.871; S -0.199; V -0.53; Y -0.017
R14: A -0.121; C -0.095; D -0.431; E -0.024; F -0.117; G -0.317; H -0.262; I -0.252; K 0.145; L -0.322; M -0.024; N -0.611; P -0.116; Q -0.037; S -0.169; T -0.205; V -0.264; W -0.349
G15: A 0.16; C -0.152; D 0.009; E 0.238; F -0.193; H 0.008; I 0.042; K 0.15; L -0.215; N -0.05; P -0.413; Q 0.11; R -0.089; S 0.203; T -0.052; V -0.077; W -0.395
Q16: C -0.43; D -0.347; E -0.053; F -0.302; G -0.378; H -0.183; I -0.396; L -0.382; M -0.279; P -0.355; R -0.281; S -0.211; T -0.192; V -0.422; W -0.626; Y -0.252
F17: A -0.389; C -0.435; E -0.33; G -0.37; H -0.965; I -0.538; K -0.479; L -0.476; M -0.249; P -0.631; Q -0.344; R -0.554; S -0.454; T -0.486; V -0.396; W -0.441; Y -0.969
A18: C -0.079; E 0.214; G -0.103; H -0.362; I -0.1; K 0.188; L -0.062; M -0.3; N 0.154; P -0.438; Q -0.05; R -0.197; S -0.201; W -0.358
A19: C -0.209; D -0.068; E 0.021; F -0.245; G -0.114; H -0.119; I -0.5; L -0.137; M -0.174; N -0.052; P -0.749
